Data published in patent US20230270832A1, “MAGEA1 IMMUNOGENIC PEPTIDES, BINDING PROTEINS RECOGNIZING MAGEA1 IMMUNOGENIC PEPTIDES, AND USES THEREOF” (TScan Therapeutics, Inc., priority 2021, published 2023).

Assays:
[1] = tested on: cancer cells that express MAGEA1; assay: T cell recognition assay on cancer cell lines; type: cell-based, human; settings: IFNγ release, CD137/CD69 double-positive staining
Description: To detect reactivity to cancer cell lines, wild-type cancer cell lines were seeded in a 96-well flat bottom plate and rested overnight at 37° C. in 5% CO2. On the following day, T cells were thawed, washed in complete RPMI-1640 medium, and added to the wells for an effector to target (E:T) ratio of 1:1 for INFγ measurement or 1:4 for flow cytometry analysis of activation-induced markers. The co-culture was incubated overnight. Cells were then harvested by pipetting, transferred to V-bottom 96-well plates, and centrifuged at 2,000 rpm for 2 minutes. The supernatant was collected for IFNγ measurement using a human IFNγ 3rd generation single-plex assay (Protein Simple). For flow cytometry analysis (Cytoflex S™ instrument, Beckman Coulter), cell pellets were washed with FACS buffer (PBS, 0.5% BSA, 2 mM EDTA) and stained for activation-induced markers, including PE-conjugated anti-CD137 (Miltenyi), AF647-conjugated anti-CD69 (Biolegend), and BV421-conjugated anti-CD8 (BioLegend).
Cancer cell lines were purchased from ATCC (Manassas, Vα.) and HEK293T cells were originally from Takara Bio (Shiga, Japan). All media were supplemented with […], except U266B1 which required 15% FBS, and 1% penicillin and incubated at 37° C. in 5% CO2. A101D (high MAGE-A1 expresing cells; TPM: 359), A2058 (medium MAGE-A1 expresing cells; TPM: 128), HS294T, and HEK293T cells were maintained in complete DMEM. SK-MEL-5 was cultured in complete EMEM, whereas U266B1, NCIH1437 and 786-0 required complete RPMI. Untransduced cancer cells were maintained in preparation for the T cell recognition assay, and 10^6 cells of each cell line were introduced with Incucyte® NucLight™ Red lentivirus reagent (Sartorius, Gottingen, Germany) Positively-labeled cells were selected using 1.5 ug/mL of puromycin over 72 hours.

[2] = target: T1, epitope from MAGEA1 presented by HLA C*07:02 (Homo sapiens, UniProt P10321+P43355, DEL298-309); assay: Identification of MAGEA1-reactive TCRs from pool of TCR-transduced T cells (CD137/CD69 sorting, TCR sequencing); type: cell-based; settings: target cells transduced with MAGEA1 90-mer
T1 construct: an individual 90-amino acid fragments representing the top-scoring MAGEA1 tile from the screen; expressed in transfected cells; host or cells: MHC monoallelic C*07:02 HEK293T cells, lentivirally transduced with the MAGEA1 90-mer
Source text: Ten orphan TCRs from this patient were pooled together to identify their cognate antigens using the genome-wide TargetScan technology. This screen identified MAGEA1 as a novel target. […] Note that the term “TCR32-39” may also be known as “TCR39” and the term “TCR32-41” may also be known as “TCR41”.
To identify the corresponding TCR from the pool of TCR-transduced T cells, Ml-IC monoallelic C*07:02 HEK293T cells engineered to express the MAGEA1 90mer were co-cultured with the pool of T cells at an E:T ratio of 1:1 for 16-24 hours. The T cells were mixed, collected by pipetting, and labeled with a CD137 microbead kit (Miltenyi) following the manufacturer's instructions. In brief, T cells were first stained with PE-labeled anti-CD137 and AF647-labeled anti-CD69 (BioLegend), washed, and then labeled with anti-PE microbeads. Labeled cells were enriched with an autoMACS® Pro separator (Miltenyi) and CD137 and CD69 double-positive cells were sorted on a MoFlo® Astrios™ Cell Sorter (Beckman Coulter). Genomic DNA was extracted from the sorted cells and the TCR expression cassette was PCR amplified and prepared for next generation sequencing (NGS).

B1: TCR 32-39: T cell receptor recognizing MAGEA1 epitope presented by HLA-C*07:02; alpha TRAV29-DV5/TRAJ43, beta TRBV18/TRBJ2-7; wild type, HM and MGTM sequences listed (protein)
TCR alpha: DQQVKQNSPSLSVQEGRISILNCDYTNSMFDYFLWYKKYPAEGPTFLISISSIKDKNEDGRFTVFLNKSAKHLSLHIVPSQPGDSAVYFCAASAQNNDMRFGAGTRLTVKPNIQNPEPAVYQLKDPRSQDSTLCLFTDFDSQINVPKTMESGTFITDKCVLDMKAMDSKSNGAIAWSNQTSFTCQDIFKETNATYPSSDVPCDATLTEKSFETDMNLNFQNLLVMVLRILLLKVAGFNLLMTLRLWSS
TCR beta: NAGVMQNPRHLVRRRGQEARLRCSPMKGHSHVYWYRQLPEEGLKFMVYLQKENIIDESGMPKERFSAEFPKEGPSILRIQQVVRGDSAAYFCASSPSYEQYFGPGTRLTVTEDLRNVTPPKVSLFEPSKAEIANKQKATLVCLARGFFPDHVELSWWVNGKEVHSGVCTDPQAYKESNYSYCLSSRLRVSATFWHNPRNHFRCQVQFHGLSEEDKWPEGSPKPVTQNISAEAWGRADCGITSASYQQGVLSATILYEILLGKATLYAVLVSTLVVMAMVKRKNS
recognition of cancer cells [1]: recognize cancer cells that express MAGEA1
recognition of cancer cells ([1]; listed as TCR 39): recognize
recognition of MAGEA1 epitope / identification as MAGEA1-reactive TCR ([2]; listed as HN-32-39): recognizing the same novel epitope from MAGEA1 presented by HLA C*07:02
recognition of MAGEA1 epitope / identification as MAGEA1-reactive TCR ([2]; listed as TCR 39): hits
